B1: mAb11729 (antibody, V domains shown)
VH: QVQLVQSGAEVKKSGSSVKVSCKASGGTFSSYAISWVRQAPGQGLEWMGGIIPIFGTPSYAQKFQDRVTITTDESTSTVYMELSSLRSEDTAVYYCARQQPVYQYNMDVWGQGTTVTVSS
VL: DIQMTQSPSSLSASVGDRVTITCRASQGIRNNLGWYQQKPLKAPKRLIYAASSLQSGVPSRFSGSGSGTEFTLTISSLQPEDFATYYCLQYNNYPWTFGQGTKVEIK
B2: 11729-HC-Cterm-LLQGA-19a (conjugate)
heavy: QVQLVQSGAEVKKSGSSVKVSCKASGGTFSSYAISWVRQAPGQGLEWMGGIIPIFGTPSYAQKFQDRVTITTDESTSTVYMELSSLRSEDTAVYYCARQQPVYQYNMDVWGQGTTVTVSSLLQGA
VL: B1 VL
modifications: left off: a dimerising Fc or GST
B3: 11729-HC-Cterm-LLQGA-19C (conjugate)
heavy: B2 heavy
VL: B1 VL
modifications: left off: a dimerising Fc or GST
B4: 11729-HC-Cterm-LLQGA-10b (conjugate)
heavy: B2 heavy
VL: B1 VL
modifications: left off: a dimerising Fc or GST
B5: 11729-HC-Cterm-LLQGA-19b (conjugate)
heavy: B2 heavy
VL: B1 VL
modifications: left off: a dimerising Fc or GST

System: H1N1 A/Puerto Rico/08/1934 influenza virus
Assay type: cell-based

Row | Molecule | antiviral activity against H1N1 in vitro | Fold Increase over Parental Antibody
1 | B1 | displays antiviral activity against H1N1 in vitro | –
2 | B2 | – | 7.75 fold
3 | B3 | – | 28.78 fold
4 | B4 | – | 6.96 fold
5 | B5 | – | 15.76 fold

— patent US20230277682A1 (priority 2022, published 2023)
